Target: SmT1-R, resistin-trimerized SARS-CoV-2 reference strain spike ectodomain (SARS-CoV-2 | human) (UniProt P0DTC2)
Assay: SPR; Biacore T200, 25°C, PBS with 0.05% Tween 20 and 3.4 mM EDTA; spike trimer captured through its resistin domain on an immobilised anti-resistin VHH-Fc; monomeric ACE2 flowed over, single cycle kinetics, three concentrations, 5-fold dilutions from 200 nM; 1:1 binding model

In the case of “recombinant human ACE2, purified monomeric (from UniProt Q9BYF1 18-805) (receptor)”, the Kd is reported as 28 nM.
